Molecular target: T1, human DLL3 (human, UniProt Q9NYJ7 27-492, limits assumed)
T1 construct: also called hDLL3; DLL3 protein
T1 sequence: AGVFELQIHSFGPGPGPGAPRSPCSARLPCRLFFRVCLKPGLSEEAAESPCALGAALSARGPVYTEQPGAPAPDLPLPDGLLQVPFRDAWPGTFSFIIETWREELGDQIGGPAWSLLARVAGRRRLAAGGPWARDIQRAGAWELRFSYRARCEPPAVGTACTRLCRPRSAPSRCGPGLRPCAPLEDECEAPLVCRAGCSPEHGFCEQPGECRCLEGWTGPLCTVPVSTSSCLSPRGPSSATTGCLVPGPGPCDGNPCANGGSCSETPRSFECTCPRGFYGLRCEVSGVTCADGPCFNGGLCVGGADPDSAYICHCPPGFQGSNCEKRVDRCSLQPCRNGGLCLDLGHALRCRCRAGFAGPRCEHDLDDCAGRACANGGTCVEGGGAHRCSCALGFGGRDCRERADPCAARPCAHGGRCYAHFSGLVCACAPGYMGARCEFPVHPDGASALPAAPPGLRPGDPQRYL
Assay: screen on immobilized hDLL3 or h293-hDLL3 cells
Summary of the method: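 Solid-phase ELISA on DLL3-His (0.5 μg/ml coating), developed with HRP anti-mouse IgG and TMB and read at OD 450, was one screen for supernatants of single-cell hybridomas from human DLL3-immunized mice taken after 10 days in culture. Flow-cytometry binding counted as positive only above the control.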

B1: SC16.106 (antibody, V domains shown)
VH: QVQLKQSGPGLVAPSQSLFITCTVSGFSLTSYEINWVRQPPGKGLEWLGVIWTGGSTNYNSALISRLSISKDNSKSLVFLKMNSLQTDDTAIYYCVRGVYAMDYWGQGTSVTVSS
VL: DIKMTQSPSSMYASLGERVTITCKASQDINSYLSWFQQKPGKSPKTLIYRANRLVDGVPSRFSGSGSGQDYSLTISSLEYEDMGIYYCLQYDEFPFTFGSGTKLEIK
notes: murine mAb
B1: binds.

B2: SC16.107 (antibody, V domains shown)
VH: EVQLQQSGPELVKPGASVKMSCKASGYTFTNYVMHWVKQKPGQGLEWIGYINPYNDGTKYNEKFKGKATLTSDKSSTTAYMALSSLTSEDSAVYYCAVAYYSNWGFAYWGQGTLVTVSA
VL: DIVMTQSHKFMSTSVGDRVSITCKASQDVNTAVGWYQQKPGQSPKLLIYSASYRYTGVPDRFTGSGSGTDFTFTISSVQAEDLAVYYCQQHYSSPYTFGGGTKVEIK
notes: murine mAb
B2: binds.

B3: SC16.139 (antibody, V domains shown)
VH: EVQLQQSGPELVKPGASVKMSCKASGYTFTNYVMHWVKQKPGQGLEWIGYINPYNDGTKYNEKFKGKATLTSDKSSTTAYMALSSLTSEDSAVYYCAVAYYSNWGFAYWGQGTLVTVSA
VL: DIVMTQSHKFMSTSVGDRVSITCKASQDVNTAVGWYQQKPGQSPKLLIYSASYRYTGVPDRFTGSGSGTDFTFTISSVQAEDLAVYYCQQHYSSPYTFGGGTKLEIK
notes: murine mAb
B3: binds.

B4: SC16.109 (antibody, V domains shown)
VL: QIVLTQSPAIMSASPGEKVTMTCSASSSVSYMYWYQQKPGSSPRLLIYDTSNLASGVPVRFSGSGSGTSFSLTISRMEAEDTATYYCQEWSGNPLTFGDGTKLELK
V domain: QIQLVQSGPELKKPGETVKISCKASGYTFTNYGMNWVKQAPGKGLKWMGWINTYTGEPAYADDFKGRFAFSLETSASAAYLQINNLKNEDTATFFCANMRPTRGFAYWGQGTLGTVSA
notes: murine mAb
B4: binds.

B5: SC16.110 (antibody, V domains shown)
VH: EVQLQQSGPGLVRTGASVKISCKASGYSFTGYYMHWVKQSHGKSLEWIGYISCYNGATTYNQNFKGKATFIVDTSSSTAYMQFNSLTSEDSAVYYCARSDGGHAMDYWGQGTSVTVSS
VL: NIVMTQTPKFLLVSAGDRVTITCKASQSVSNDVAWYQQKPGQSPKLLIYYASNRYTGVPDRFTGSGYGTDFTFTISTVQAEDLAVYFCQQDYSSPPTFGGGTKLEIK
notes: murine mAb
B5: binds.

B6: SC16.111 (antibody, V domains shown)
VH: EVQLQQSGPELEKPGASVKISCKASGYSFTGYNMNWVKQSNGKSLEWIGNIDPYYGGSSYKQKFEGKATLTVDKSSSTAYMQLKSLTSEDSAVYYCARGGSNFFDYWGQGTTLTVSS
VL: DIQMTQSPASLAASVGETVTITCRASENIYYSLAWYQQKQGKSPQLLIYNANSLEDGVPSRFSGSGSGTQYSMKINSMQPEDTATYFCKQTYDVPLTFGAGTKLELK
notes: murine mAb
B6: binds.

B7: SC16.10 (antibody, V domains shown)
VH: QVTLKESGPGILQSSQTLSLTCSFSGFSLSTSGMGVGWIRQPSGKGLEWLAHIWWDDVKRYNPVLKSRLTISKDTSSSQVFLKIASVDTADTATYYCARLVDDLYYFDYWGQGTTLTVSS
VL: QIVLTQSPAIMSASLGERVTMTCTASSSVSSSYLHWYQQKPGSSPKLWIYSTSNLASGVPTRFSGSGSGTSYSLTISSMEAEDAATYYCHQYHRSPFTFGSGTKLEIK
notes: murine mAb
B7: binds.

B8: SC16.113 (antibody, V domains shown)
VH: DVKLVESGGGLVKPGGSLKLSCAASGFTFSSYTMSWVRQTPEKRLEWVATISSGGSYPYYPDSVKGRFTISRDNAKNTLYLQMSSLKSEDTAMYYCTRDVYDGYSYWGQGTTLTVSS
VL: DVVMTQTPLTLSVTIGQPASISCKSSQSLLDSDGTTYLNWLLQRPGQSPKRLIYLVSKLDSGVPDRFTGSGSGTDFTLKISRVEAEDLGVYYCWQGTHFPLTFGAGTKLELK
notes: murine mAb
B8: binds.

B9: SC16.114 (antibody, V domains shown)
VH: EVQLQQSGAELVKPGASVKLSCTASGFNIKDTYIHWVKQRPEQGLEWIGRIDPANGNTKYDPKFQGKATITPDTSSNTAYLQLSSLTSEDTAVYYCARSWRNYGSSFWYFDVWGAGTTVTVSS
VL: QIVLSQSPAILSASPGEKVTMTCRASSSVSYMHWYQQKPGSSPKPWIYATSNLASGVPARFSGSGSGTSYSLTISRVEAEDAATYYCQQWSSNPYTFGGGTKLEIK
notes: murine mAb
B9: binds.

B10: SC16.115 (antibody, V domains shown)
VH: DVKLVESGGGLVKPGGSLKLSCAASGFTFSSYTMSWVRQTPEKRLEWVATISSGGSYPYYPDSVKGRFTISRDNAKNTLYLQMSSLKSEDTAMYYCTRDVYDGYSYWGQGTTLTVSS
VL: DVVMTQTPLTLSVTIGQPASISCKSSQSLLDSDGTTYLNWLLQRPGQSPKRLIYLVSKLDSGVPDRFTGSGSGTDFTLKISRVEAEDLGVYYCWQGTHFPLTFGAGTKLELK
notes: murine mAb
B10: binds.

B11: SC16.116 (antibody, V domains shown)
VH: QVQLKQSGPGRVQPSQSLSITCTVSGFSLTSNGVHWVRQSPGKGLEWLGVLWSGGSTDYNAAFISRLSISKDNYKSQVFFKMNSLQANDTAIYYCARNNNRYGAMDYWGQGTSVTVSS
VL: DIVMTQSPSSLTVTAGEKVTMSCTSSQSLLTSGNQKNYLTWYQQKPGQPPKLLIYWASTRESGVPDRFTGSGSGTDFTLTISSLQAEDLAVYYCQNDYSLTFGAGTKLELK
notes: murine mAb
B11: binds.

B12: SC16.117 (antibody, V domains shown)
VH: QVQLKESGPGLVAPSQSLSITCTVSGFSLTNYGVHWVRQPPGKGLEWLGVIWAGGITNYNSALMSRLSISEDNSKSQVFLKMNSLQTDDTAMYYCARNLGPYAMDYWGQGTSVTVSS
VL: DIQMNQSPSSLSASLGDTITITCHVSQNINVWLSWYQQKPGNIPKLLIQKASNLHTGVPSRFSGSGSGTGFTLTISSLQPEDIATYYCQQGQSYPFTFGSGTKLEIK
notes: murine mAb
B12: binds.

B13: SC16.118 (antibody, V domains shown)
VH: EVQLQQSGPDLVKPGASVKISCKASGYSFTGYYMHWVKQSHGKSLEWIGRVNPNNGGTSYNQKFKGKAILTADKSSSTAYMELRSLTSEDSAVYYCARGSYDYAEGWGQGTLVTVSA
VL: DIVLTQSPASLAVSLGQRATISCKASQSVDYDGDSYLTWYQQKPGQPPKLLIYAASNLESGIPARFSGSGSGTDFTLNIHPVEEEDAATYYCQQSNEDPYTFGGGTKLEIK
notes: murine mAb
B13: binds.

B14: SC16.134 (antibody, V domains shown)
VH: EVQLQQSGPDLVKPGASVKISCKASGYSFTGYYMHWVKQSHGKRLEWIGRVNPNNGGTNYNQKFKGKAILTVDKSSSTAYMELRSLTSEDSAVYYCARGSYDNAEGWGQGTLVTVSA
VL: DIVLTQSPASLAVSLGQRATISCKASQSVDHAGDSYMNWYQQKPGQPPKLLIYAASNLESGIPARFSGSGSGTDFTLNIHPVEEEDAATYYCQQSNEDPYTFGGGTKLEIK
notes: murine mAb
B14: binds.

B15: SC16.121 (antibody, V domains shown)
VH: EVQLVESGGGLVQPKGSLKLSCAASGFTFNTYAMNWVRQAPGKGLEWVARIRIKSNNYATYYADSVKDRFTISRDDSQNMLYLQMNNLKTEDTAVYYCVRQGYSYDWGPWFAYWGQGTLVTVSA
VL: QIVLTQSPAIMSASPGEKVTITCSASSSVSYMHWFQQKPGTSPKLWIYSTSNLASGVPARFSGSGSGTSYSLTISRMEAEDAATYYCQQRSSYPPTFGGGTKLEIK
notes: murine mAb
B15: binds.

B16: SC16.122 (antibody, V domains shown)
VH: EVQLVESGGGLVKPGGSLKLSCAASGFTFSDYYMFWVRQTPEKRLEWVATISDGGSYTYFPDSVKGRFTISRDNAQNNLYLQMSSLKSEDTAMYYCARAGTLYAMDYWGQGTSVTVSS
VL: DIVMTQSQKFMSTSVGDRVSVTCKASQNVGTNVAWYQQKPGQSPKVLIYSASYRYSGVPDRFTGSGSGTDFTLTISNVQSEDLAEFFCQQYNSYPLTFGGGTKLEIK
notes: murine mAb
B16: binds.

B17: SC16.123 (antibody, V domains shown)
VH: QVALKESGPGILQPSQTLSLTCSFSGFSLSTSGMGVGWIRQPSGKGLEWLAHIWWDDVKRYNPALKSRLTISKDTSSSQVFLKIASVDTADTATYYCARMEDYGSSSYFDFWGHGTTLTVSS
VL: QIVLTQSPAIMSASLGERVTMTCTASSSVSSSYLHWYQQKPGSSPKLWIYSTSNLASGVPARFSGSGSGTSYSLTISSMETEDAATYYCHQYHRSPFTFGSGTKLEIK
notes: murine mAb
B17: binds.

B18: SC16.11 (antibody, V domains shown)
VH: QIQLVQSGPELKKPGETVKISCKASGYTFTDYSMHWVKQAPGKGLKWMGWINTETVEPTYADDFMGRFAFSLETSASTAFLQINNLENEDTATYFCARFGSYAMDYWGQGTSVTVSS
VL: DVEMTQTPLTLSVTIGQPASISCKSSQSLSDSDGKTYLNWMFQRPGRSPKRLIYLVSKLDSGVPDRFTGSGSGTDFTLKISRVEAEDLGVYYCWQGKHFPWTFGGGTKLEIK
notes: murine mAb
B18: binds.

B19: SC16.124 (antibody, V domains shown)
VH: EVQLQQSGPELVKPGASVKMSCKASGYTFTSYVMHWVKQKPGQGLEWIGYINPYNDGTKYNEKFKGKATLTSDKSSSTAYMELSSLTSEDSAVYYCARGALYYGNYLGYFDVWGAGTTVTVSS
VL: DIQMTQSPASQSASLGESVTITCLASQTIGTWLAWYQQKPGKSPQLLISAATSLADGVPSRFSGSGSGTKFSFKISSLQAEDFVSYYCQQLYSTPWTFGGGTKLEIK
notes: murine mAb
B19: binds.

B20: SC16.126 (antibody, V domains shown)
VH: QVQMKESGPGLVAPSQSLSITCTVSGSSLTNYGVHWVRQPPGKGLEWLGVIWAGGSTNYNSALMSRLSISKDNSKSQVFLKMNSLQTDDTAMYYCARDWEGWFAYWGQGTLVTVSA
VL: DIQMNQSPSSLSASLGDTITITCHASQNINVWLSWYQQKPGNIPKLLIYKASNLHTGVPSRFSGSGSGTGFTLTISSLQPEDIATYYCQQGQSYPFTFGSGTKLEIK
notes: murine mAb
B20: binds.

B21: SC16.149 (antibody, V domains shown)
VH: QVQLKESGPGLVAPSQSLSITCAVSGFSLTSFGVHWVRQPPGKGLEWLGVIWAGGSTNYYSALMSRLSISIDNSKSQVFLKMNSLQTDDTAMYYCARDWEGWFAYWGQGTLVTVSA
VL: DIQMNQSPSSLSASLGDTITITCHASQNINVWLSWYQQKPGNIPKLLIYKASHLHTGVPSRLSGSGSGTGFTLTISSLQPEDIATYYCQQGQSYPFTFGSGTTLEIK
notes: murine mAb
B21: binds.
